Experimental data taken from patent US20040228866A1, “Suppressor genes” (Ludwig Institute for Cancer Research, priority 2000, published 2004).

B1: ASPP2 (1-1128) (protein)
chain: MMPMFLTVYLSNNEQHFTEVPVTPETICRDVVDLCKEPGESDCHLAEVWCGSERPVADNERMFDVLQRFGSQRNEVRFFLRHERPPGRDIVSGPRSQDPSLKRNGVKVPGEYRRKENGVNSPRMDLTLAELQEMASRQQQQIEAQQQLLATKEQRLKFLKQQDQRQQQQVAEQEKLKRLKEIAENQEAKLKKVRALKGHVEQKRLSNGKLVEEIEQMNNLFQQKQRELVLAVSKVEELTRQLEMLKNGRIDSHHDNQSAVAELDRLYKELQLRNKLNQEQNAKLQQQRECLNKRNSEVAVMDKRVNELRDRLWKKKAALQQKENLPVSSDGNLPQQAASAPSRVAAVGPYIQSSTMPRMPSRPELLVKPALPDGSLVIQASEGPMKIQTLPNMRSGAASQTKGSKIHPVGPDWSPSNADLFPSQGSASVPQSTGNALDQVDDGEVPLREKEKKVRPFSMFDAVDQSNAPPSFGTLRKNQSSEDILRDAQVANKNVAKVPPPVPTKPKQINLPYFGQTNQPPSDIKPDGSSQQLSTVVPSMGTKPKPAGQQPRVLLSPSIPSVGQDQTLSPGSKQESPPAAAVRPFTPQPSKDTLLPPFRKPQTVAASSIYSMYTQQQAPGKNFQQAVQSALTKTHTRGPHFSSVYGKPVIAAAQNQQQHPENIYSNSQGKPGSPEPETEPVSSVQENHENERIPRPLSPTKLLPFLSNPYRNQSDADLEALRKKLSNAPRPLKKRSSITEPEGPNGPNIQKLLYQRTTIAAMETISVPSYPSKSASVTASSESPVEIQNPYLHVEPEKEVVSLVPESLSPEDVGNASTENSDMPAPSPGLDYEPEGVPDNSPNLQNNPEEPNPEAPHVLDVYLEEYPPYPPPPYPSGEPEGPGEDSVSMRPPEITGQVSLPPGKRTNLRKTGSERIAHGMRVKFNPLALLLDSSLEGEFDLVQRIIYEVDDPSLPNDEGITALHNAVCAGHTEIVKFLVQFGVNVNAADSDGWTPLHCAASCNNVQVCKFLVESGAAVFAMTYSDMQTAADKCEEMEEGYTQCSQFLYGVQEKMGIMNKGVIYALWDYEPQNDDELPMKEGDCMTIIHREDEDEIEWWWARLNDKEGYVPRNLLGLYPRIKPRQRSLA
B2: Apoptosis Stimulating Protein 1 (ASPP1) (protein)
chain: MMPMILTVFLSNNEQILTEVPITPETTCRDVVEFCKEPGEGSCHLAEVWRGNERPIPFDHMMYEHLQIWGPRREEVKFFLRHEDSPTENSEQGGRQTQEQRTQRNVINVPGDKRTEYGVGNPRVELTLSELQDMAARQQQQIENQQQMLVAKEQRLHFLKQQERRQQQSISENEKLQKLKERVEAQENKLKKIRAMRGQVDYSKIMNGNLSAEIERFSAMFQEKKQEVQTAILRVDQLSQQLEDLKKGKLNGFQSYNGKLTGPAAVELKRLYQELQIRNQLNQEQNSKLQQQKELLNKRNMEVAMMDKRISELRERLYGKKIQLNRVNGTSSPQSPLSTSGRVAAVGPYIQVPSAGSFPVLGDPIKPQSLSIASNAAHGRSKSANDGNWPTLKQNSSSSVKPVQVAGADWKDPSVEGSVKQGTVSSQPVPFSALGPTEKPGIEIGKVPPPIPGVGKQLPPSYGTYPSPTPLGPGSTSSLERRKEGSLPRPSAGLPSRQRPTLLPATGSTPQPGSSQQIQQRISVPPSPTYPPAGPPAFPAGDSKPELPLTVAIRPFLADKGSRPQSPRKGPQTVNSSSIYSMYLQQATPPKNYQPAAHSALNKSVKAVYGKPVLPSGSTSPSPLPFLHGSLSTGTPQPQPPSESTEKEPEQDGPAAPADGSTVESLPRPLSPTKLTPIVHSPLRYQSDADLEALRRKLANAPRPLKKRSSITEPEGPGGPNIQKLLYQRFNTLAGGMEGTPFYQPSPSQDFMGTLADVDNGNTNANGNLEELPPAQPTAPLPAEPAPSSDANDNELPSPEPEELICPQTTHQTAEPAEDNNNNVATVPTTEQIPSPVAEAPSPGEEQVPPAPLPPASHPPATSTNKRTNLKKPNSERTGHGLRVRFNPLALLLDASLEGEFDLVQRIIYEVEDPSKPNDEGITPLHNAVCAGHHHIVKFLLDFGVNVNAADSDGWTPLHCAASCNSVHLCKQLVESGAAIFASTISDIETAADKCEEMEEGYIQCSQFLYGVQEKLGVMNKGVAYALWDYEAQNSDELSFHEGDALTILRRKDESETEWWWARLGDREGYVPKNLLGLYPRIKPRQRTLA

Biological target: p73α (UniProt O15350)
Assay: cell-based or functional assay

Chain of p73α (O15350 whole entry): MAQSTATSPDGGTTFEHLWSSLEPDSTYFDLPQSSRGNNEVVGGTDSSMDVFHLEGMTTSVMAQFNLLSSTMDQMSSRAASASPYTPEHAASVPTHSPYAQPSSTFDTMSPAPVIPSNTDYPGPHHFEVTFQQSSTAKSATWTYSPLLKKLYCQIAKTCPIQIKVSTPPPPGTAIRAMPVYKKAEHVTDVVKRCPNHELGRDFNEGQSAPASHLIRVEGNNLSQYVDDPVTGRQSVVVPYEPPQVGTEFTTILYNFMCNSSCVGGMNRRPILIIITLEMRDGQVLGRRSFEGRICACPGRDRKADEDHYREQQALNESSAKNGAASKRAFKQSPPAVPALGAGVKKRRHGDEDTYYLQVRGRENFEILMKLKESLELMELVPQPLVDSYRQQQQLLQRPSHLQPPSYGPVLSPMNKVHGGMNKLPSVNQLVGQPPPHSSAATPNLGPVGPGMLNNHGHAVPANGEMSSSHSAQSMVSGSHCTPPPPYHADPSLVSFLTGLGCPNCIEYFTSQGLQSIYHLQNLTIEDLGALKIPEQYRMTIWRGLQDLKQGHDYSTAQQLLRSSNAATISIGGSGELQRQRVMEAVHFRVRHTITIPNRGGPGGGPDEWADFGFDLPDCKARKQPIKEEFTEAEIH

Row | Binder | transactivation function on the Bax promoter (Bax-luc reporter) [fold]
1 | B1 | 6
2 | B2 | 3
